2 molecules from article PMC6779109, “The Glutamate Receptor-Like Protein GLR3.7 Interacts With 14-3-3ω and Participates in Salt Stress Response in Arabidopsis thaliana” (Frontiers in Plant Science, 2019) can be followed below.

Where no end group is shown, it is not given here.

The target in the experiment is T1, 6His-14-3-3ω recombinant protein (Arabidopsis thaliana, UniProt Q01525 1-259).
T1 construct: 14-3-3ω (GF14/omega) of Arabidopsis thaliana; also called At14-3-3ω; GF14/omega; source: E. coli, purified (Ni-NTA)
T1 sequence (looked up): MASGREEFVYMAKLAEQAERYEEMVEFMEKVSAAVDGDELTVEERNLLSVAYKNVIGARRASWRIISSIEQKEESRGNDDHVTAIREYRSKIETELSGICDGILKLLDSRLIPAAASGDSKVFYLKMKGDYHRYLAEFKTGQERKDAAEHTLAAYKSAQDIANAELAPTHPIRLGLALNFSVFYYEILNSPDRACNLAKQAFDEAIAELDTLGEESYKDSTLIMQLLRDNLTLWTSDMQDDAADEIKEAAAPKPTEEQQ
Description: quartz crystal microbalance; GST fusion peptide coated on the sensor to saturation, 6His-14-3-3ω injected into PBS; AFFINIX QN μ, Kd by AQUA software. The settings on record: both partners purified.

A word on the Kd: it is a measure of binding affinity in units of concentration.

B1: GST-GLR3.7 P0 recombinant fusion peptide (nonphosphorylated) (peptide)
chain: RYRRMERTSSMPRA
modifications: also: GST fusion
notes: C-terminal fragment of AtGLR3.7 holding Thr-858, Ser-859 and Ser-860; Cloned between AscI and NotI of the NRV vector (GST, RFP, Strep-tags; Curran et al., 2011) with the amino acids APG after the restriction site; fusion protein about 55 kD; also called G-P0; G-GLR3.7 P0; not shown: RFP (from the NRV vector)
As to B1, the equilibrium dissociation constant (Kd) was 1770 nM.

B2: Phosphorylated GST-GLR3.7 P0 recombinant fusion peptide (peptide)
chain: RYRRMERTSSMPRA
modifications: also: phosphorylated, site not given here, fused to GST
notes: C-terminal fragment of AtGLR3.7 holding Thr-858, Ser-859 and Ser-860; also called G-P0-phosphorylated fusion peptide; phosphorylated G-GLR3.7 P0; not shown: RFP (from the NRV vector)
On to B2, for which the Kd was found to be 2.31 nM.
